Series [1] concerns the target T1, SPEN RRM 1-4 (Homo sapiens) (UniProt Q96T58).
T1 sequence: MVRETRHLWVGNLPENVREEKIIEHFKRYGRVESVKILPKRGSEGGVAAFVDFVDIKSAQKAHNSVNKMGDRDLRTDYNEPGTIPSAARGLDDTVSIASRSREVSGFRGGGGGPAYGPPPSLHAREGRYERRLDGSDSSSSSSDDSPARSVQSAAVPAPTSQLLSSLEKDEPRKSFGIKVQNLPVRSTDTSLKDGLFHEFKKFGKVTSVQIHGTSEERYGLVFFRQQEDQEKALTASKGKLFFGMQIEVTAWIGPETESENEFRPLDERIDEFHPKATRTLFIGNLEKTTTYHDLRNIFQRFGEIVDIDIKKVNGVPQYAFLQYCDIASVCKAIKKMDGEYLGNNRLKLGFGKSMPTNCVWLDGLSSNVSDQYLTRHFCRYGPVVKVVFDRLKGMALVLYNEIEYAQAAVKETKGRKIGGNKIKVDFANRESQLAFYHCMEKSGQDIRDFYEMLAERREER
Briefly: EMSA. The conditions noted are these: EMSA: 20 mM Tris-HCl pH 7.5, 150 mM KCl, 5 mM MgCl2, 10% glycerol, room temperature 30 min, 2 nM each labeled RNA (multiplexed), 4.5% TBE native gel.

In series [2] the target is T2, SPEN RRM 2-4 (Homo sapiens) (UniProt Q96T58).
T2 sequence: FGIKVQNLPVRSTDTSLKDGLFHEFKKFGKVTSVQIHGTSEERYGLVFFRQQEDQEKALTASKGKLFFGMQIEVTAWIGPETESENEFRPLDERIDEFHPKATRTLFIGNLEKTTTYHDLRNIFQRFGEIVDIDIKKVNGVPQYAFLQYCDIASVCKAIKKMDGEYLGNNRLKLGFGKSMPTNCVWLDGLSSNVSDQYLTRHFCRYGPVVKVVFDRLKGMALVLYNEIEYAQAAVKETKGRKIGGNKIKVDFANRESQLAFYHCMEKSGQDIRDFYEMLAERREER
Briefly: EMSA. The conditions noted are these: EMSA: 20 mM Tris-HCl pH 7.5, 150 mM KCl, 5 mM MgCl2, 10% glycerol, room temperature 30 min, 2 nM each labeled RNA (multiplexed), 4.5% TBE native gel. In general terms: Mobility shift assays separate free from complexed probe on a gel.

Series [3] addresses T3, SPEN RRM 2-4 mut3 F282A;K311A;Y319A;F321A;K353A (Homo sapiens) (UniProt Q96T58).
T3 sequence: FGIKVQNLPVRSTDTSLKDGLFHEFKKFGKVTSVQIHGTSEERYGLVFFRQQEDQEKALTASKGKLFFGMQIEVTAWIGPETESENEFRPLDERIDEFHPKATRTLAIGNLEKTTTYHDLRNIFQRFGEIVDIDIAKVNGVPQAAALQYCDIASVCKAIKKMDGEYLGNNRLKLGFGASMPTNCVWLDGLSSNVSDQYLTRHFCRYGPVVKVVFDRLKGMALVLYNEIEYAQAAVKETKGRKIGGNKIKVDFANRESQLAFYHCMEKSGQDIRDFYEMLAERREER
Briefly: EMSA. The following applies: EMSA: 20 mM Tris-HCl pH 7.5, 150 mM KCl, 5 mM MgCl2, 10% glycerol, room temperature 30 min, 2 nM each labeled RNA (multiplexed), 4.5% TBE native gel.

In series [4] the target is T4, SPEN RRM 1-4 (Homo sapiens, UniProt Q96T58).
T4 sequence: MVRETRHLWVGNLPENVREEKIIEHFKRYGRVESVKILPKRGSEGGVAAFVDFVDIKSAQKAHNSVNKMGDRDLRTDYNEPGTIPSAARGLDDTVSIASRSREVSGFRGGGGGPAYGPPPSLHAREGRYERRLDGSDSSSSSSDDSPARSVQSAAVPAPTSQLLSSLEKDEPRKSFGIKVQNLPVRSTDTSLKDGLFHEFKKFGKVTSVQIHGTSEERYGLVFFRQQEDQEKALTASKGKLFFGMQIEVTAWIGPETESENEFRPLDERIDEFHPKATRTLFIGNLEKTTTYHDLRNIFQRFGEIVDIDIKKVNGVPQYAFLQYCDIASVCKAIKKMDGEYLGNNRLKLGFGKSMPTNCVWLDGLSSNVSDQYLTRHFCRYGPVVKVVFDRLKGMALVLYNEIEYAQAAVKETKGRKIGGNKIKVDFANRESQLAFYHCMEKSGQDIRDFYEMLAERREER
Briefly: EMSA; Hill 1; EMSA: 20 mM Tris-HCl pH 7.5, 150 mM KCl, 5 mM MgCl2, 10% glycerol, room temperature 30 min, 2 nM each labeled RNA (multiplexed), 4.5% TBE native gel. The following applies: protein: recombinant, tags: 6xHis-MBP-TEV at N-terminus, removed by TEV cleavage.

The next series addresses T5, SPEN RRM 2-4 (Homo sapiens, UniProt Q96T58).
T5 sequence: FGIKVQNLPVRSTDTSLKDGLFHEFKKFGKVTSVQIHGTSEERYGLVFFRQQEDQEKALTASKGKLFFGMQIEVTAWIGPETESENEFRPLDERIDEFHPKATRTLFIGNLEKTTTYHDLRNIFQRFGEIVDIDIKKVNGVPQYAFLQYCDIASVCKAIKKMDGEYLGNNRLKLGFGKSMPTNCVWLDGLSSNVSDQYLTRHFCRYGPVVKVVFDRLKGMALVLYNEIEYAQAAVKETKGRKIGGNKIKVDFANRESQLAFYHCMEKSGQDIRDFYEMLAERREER
Briefly: EMSA; Hill 10; EMSA: 20 mM Tris-HCl pH 7.5, 150 mM KCl, 5 mM MgCl2, 10% glycerol, room temperature 30 min, 2 nM each labeled RNA (multiplexed), 4.5% TBE native gel. The following applies: protein: recombinant; tags: 6xHis-MBP-TEV at N-terminus, removed by TEV cleavage; label: internal Cy3-, Cy5- or fluorescein-UTP.

The next series concerns the target T6, SPEN RRM 2-4 mut3 (Homo sapiens, UniProt Q96T58, F282A;K311A;Y319A;F321A;K353A).
T6 sequence: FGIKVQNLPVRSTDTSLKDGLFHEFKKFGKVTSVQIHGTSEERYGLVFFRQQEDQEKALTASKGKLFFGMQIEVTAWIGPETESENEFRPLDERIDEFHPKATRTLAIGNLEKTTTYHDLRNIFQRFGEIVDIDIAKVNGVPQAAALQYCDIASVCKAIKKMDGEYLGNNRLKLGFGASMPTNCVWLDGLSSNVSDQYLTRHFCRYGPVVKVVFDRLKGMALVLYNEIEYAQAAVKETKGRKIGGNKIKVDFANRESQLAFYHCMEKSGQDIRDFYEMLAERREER
Briefly: EMSA; Hill 2; text: loss of binding (Kd >1000 nM); EMSA: 20 mM Tris-HCl pH 7.5, 150 mM KCl, 5 mM MgCl2, 10% glycerol, room temperature 30 min, 2 nM each labeled RNA (multiplexed), 4.5% TBE native gel. The following applies: protein: recombinant; tags: 6xHis-MBP-TEV at N-terminus, removed by TEV cleavage; label: internal Cy3-, Cy5- or fluorescein-UTP.

Series [5] deals with T4, SPEN RRM 1-4. Briefly: EMSA; Hill 2; EMSA: 20 mM Tris-HCl pH 7.5, 150 mM KCl, 5 mM MgCl2, 10% glycerol, room temperature 30 min, 2 nM each labeled RNA (multiplexed), 4.5% TBE native gel. The conditions noted are these: protein: recombinant; tags: 6xHis-MBP-TEV at N-terminus, removed by TEV cleavage; label: internal fluorophore-UTP.
Series [6] deals with T4, SPEN RRM 1-4. Briefly: EMSA; Hill 5; EMSA: 20 mM Tris-HCl pH 7.5, 150 mM KCl, 5 mM MgCl2, 10% glycerol, room temperature 30 min, 2 nM each labeled RNA (multiplexed), 4.5% TBE native gel. The conditions noted are these: protein: recombinant; tags: 6xHis-MBP-TEV at N-terminus, removed by TEV cleavage; label: internal fluorophore-UTP.
Where [7] appears, read: label: internal fluorophore-UTP.

Usually Kd stands for the constant that tells how readily two partners part at equilibrium. With “GGGCUGCGGAUACCUGGUUUUAUUAUUUUUUCUUUGCCCAACGGGGCCGUGGAUACCUGCCUUUUAAUUCUUUUUUAUUCGCCCAUCGGGGCCGCGGAUACCUGCUUUUUAUUUUUUUUUCCUUAGCCCAUCGGGGUAUCGGAUACCUGCUGAUUCCCUUCCCCUCUGAACCCCCAACACUCUGGCCCAUCGGGGUGACGGAUAUCUGCUUUUUAAAAAUUUUCUUUUUUUGGCCCAUCGGGGCUUCGGAUACCUGCUUUUUUUUUUUUUAUUUUUCCUUGCCCAUCGGGGCCUCGGAUACCUGCUUUAAUUUUUGUUUUUCUGGCCCAUCGGGGCCGCGGAUACCUGCUUUGAUUUUUUUUUUUCAUCGCCCAUCGGUGCU [XIST A-full]”, the results for the Kd in series [1], in series [2] and in series [3] were 100 nM, 120 nM and 230 nM, respectively.
As to “GCGAGGAGCCUUUCAUCCGAAGGCGGGACGAUGCCGGAUAAUCGGCAGCCGAGGAACCGGCAGCCGAGGAUCCGCUCCGGGAACGAGCCUCGUUCCGCGCCCGCCAUGGAACCGGAUGGUCGCGGUGCCUGGGCCCACAGUCGCGCCGCGCUCGACCGCCUGGAGAAGCUGCUGCGCUGCUCGCGUUGUACUAACAUUCUGAGAGAGCCUGUGUGUUUAGGAGGAA [BARD1 mRNA fragment]”, in series [1], the equilibrium dissociation constant (Kd) was 210 nM.
As to “GUACCAGGUAUGUGAUGACAUCAGCCGACGCCUGGCACUGCUGCAGGAACAGUGGGCUGGAGGAAAGUUGUCAAUACCUGUAAAGAAGAGAAUGGCUCUACUGGUGCAAGAGCUUUCAAGCCACCGGUGGGACGCAGCAGAUGACAUCCACCGCUCCCUCAUGGUUGACCAUGUGACUGAGGUCAGUCAGUGGAUGGUAGGAGUUAAAAGAUUAAUUGCAGAAAAGAGGAGUCUGUUUUCAGAGGAGGCAGCCAAUGAAGAGAAAUCUGCAGCCACAGCUGAGAAGAACCAUACCAUACCAGGCUUCCAGCAGGCUUCAUAAUCCUCGGUUCCCCAGACUCACCGGACACCAUCUCCU [SRA]”, the Kd in series [1] was found to be 100 nM; in series [2], 300 nM; in series [3], 950 nM.

B1: tRNA-Cys (structured_RNA)
RNA: GGGGGUAUAGCUCAGGGGUAGAGCAUUUGACUGCAAAUCAAGAGGUCCCUGAUUCAAAUCCAGGUGCCCCCUCCAAGCUUG
Turning to B1, the Kd in the series with SPEN RRM 1-4 [4] (setting [7]) is 245 ± 78 nM.

B2: BARD1 mRNA fragment (structured_RNA)
RNA: GCGAGGAGCCUUUCAUCCGAAGGCGGGACGAUGCCGGAUAAUCGGCAGCCGAGGAACCGGCAGCCGAGGAUCCGCUCCGGGAACGAGCCUCGUUCCGCGCCCGCCAUGGAACCGGAUGGUCGCGGUGCCUGGGCCCACAGUCGCGCCGCGCUCGACCGCCUGGAGAAGCUGCUGCGCUGCUCGCGUUGUACUAACAUUCUGAGAGAGCCUGUGUGUUUAGGAGGAA
Regarding B2, the equilibrium dissociation constant (Kd) in the series with SPEN RRM 2-4 was determined as 550 ± 30 nM; with SPEN RRM 2-4 mut3 it was 2300 ± 500 nM.

B3: XIST A6-9+ (structured_RNA)
RNA: GGCUUCGGAUACCUGCUUUUUUUUUUUUUAUUUUUCCUUGCCCAUCGGGGCCUCGGAUACCUGCUUUAAUUUUUGUUUUUCUGGCCCAUCGGGGCCGCGGAUACCUGCUUUGAUUUUUUUUUUUCAUCGCCCAUCGGUGCUUUUUAUGGAUGAAAAAAUGUUGGUUUUGUGGGUUGUUGCACUCUCUGGAAUAUCUACACUUUUUUUUGCUGCUGAUCAUUUGGUGG
As to B3, in the series with SPEN RRM 1-4 [4] (label: internal fluorophore-UTP (EMSA)), the Kd turned out to be 48 ± 5 nM.

B4: XIST A6-8 (trimer) (structured_RNA)
RNA: GGCCCAUCGGGGCUUCGGAUACCUGCUUUUUUUUUUUUUAUUUUUCCUUGCCCAUCGGGGCCUCGGAUACCUGCUUUAAUUUUUGUUUUUCUGGCCCAUCGGGGCCGCGGAUACCUGCUU
B4: in the series with SPEN RRM 1-4 [4] (setting [7]), the Kd is 288 ± 39 nM.

B5: XIST A6-9 (structured_RNA)
RNA: GGCUUCGGAUACCUGCUUUUUUUUUUUUUAUUUUUCCUUGCCCAUCGGGGCCUCGGAUACCUGCUUUAAUUUUUGUUUUUCUGGCCCAUCGGGGCCGCGGAUACCUGCUUUGAUUUUUUUUUUUCAUCGCCCAUCGGUGCU
Take B5: the Kd with SPEN RRM 1-4 [5] amounted to 185 ± 9 nM.

B6: XIST A1-4 (structured_RNA)
RNA: GCUGCGGAUACCUGGUUUUAUUAUUUUUUCUUUGCCCAACGGGGCCGUGGAUACCUGCCUUUUAAUUCUUUUUUAUUCGCCCAUCGGGGCCGCGGAUACCUGCUUUUUAUUUUUUUUUCCUUAGCCCAUCGGGGUAUCGGAUACCUGCUGAUUCCCUUCCCCUCUGAACCCCCAACACUCUGGCCCAUCG
On to B6, for which the Kd with SPEN RRM 1-4 [4] (setting [7]) was determined as 71 ± 4 nM.

B7: XIST A4-6 (structured_RNA)
RNA: GCCGCGGAUACCUGCUUUUUAUUUUUUUUUCCUUAGCCCAUCGGGGUAUCGGAUACCUGCUGAUUCCCUUCCCCUCUGAACCCCCAACACUCUGGCCCAUCGGGGUGACGGAUAUCUGCUUUUUAAAAAUUUUCUUUUUUUGGCCCAUCGGGGCUUCGGAUACCUGCUUUUUUUUUUUUUAUUUUUCCUUGCCCAUCGGGG
Regarding B7, the Kd in the series with SPEN RRM 1-4 [5] was 132 ± 10 nM.

B8: XIST A7-8 (dimer) (structured_RNA)
RNA: GUUGCCCAUCGGGGCCUCGGAUACCUGCUUUAAUUUUUGUUUUUCUGGCCCAUCGGGGCCGCGGAUACCUGCUU
Turning to B8, in the series with SPEN RRM 1-4 [4] (setting [7]), the dissociation constant Kd stood at 248 ± 68 nM.

B9: XIST A5-8 (structured_RNA)
RNA: GCCCAUCGGGGUGACGGAUAUCUGCUUUUUAAAAAUUUUCUUUUUUUGGCCCAUCGGGGCUUCGGAUACCUGCUUUUUUUUUUUUUAUUUUUCCUUGCCCAUCGGGGCCUCGGAUACCUGCUUUAAUUUUUGUUUUUCUGGCCCAUCGGGGCCGCGGAUACCUGCUU
B9: in the series with SPEN RRM 1-4 [6], the Kd was determined as 127 ± 4 nM.

The values are drawn from publication PMC10870365, “Dissection of protein and RNA regions required for SPEN binding to XIST A-repeat RNA”.
